# According to patent US20220411487A1 (Regeneron, published 2022):
# T1: full length mouse TMPRSS6 on HEK293 cells (HEK293/mTMPRSS6) (mouse, UniProt Q9DBI0 1-811)
# T1 construct: line sorted for high expression
# T1 sequence: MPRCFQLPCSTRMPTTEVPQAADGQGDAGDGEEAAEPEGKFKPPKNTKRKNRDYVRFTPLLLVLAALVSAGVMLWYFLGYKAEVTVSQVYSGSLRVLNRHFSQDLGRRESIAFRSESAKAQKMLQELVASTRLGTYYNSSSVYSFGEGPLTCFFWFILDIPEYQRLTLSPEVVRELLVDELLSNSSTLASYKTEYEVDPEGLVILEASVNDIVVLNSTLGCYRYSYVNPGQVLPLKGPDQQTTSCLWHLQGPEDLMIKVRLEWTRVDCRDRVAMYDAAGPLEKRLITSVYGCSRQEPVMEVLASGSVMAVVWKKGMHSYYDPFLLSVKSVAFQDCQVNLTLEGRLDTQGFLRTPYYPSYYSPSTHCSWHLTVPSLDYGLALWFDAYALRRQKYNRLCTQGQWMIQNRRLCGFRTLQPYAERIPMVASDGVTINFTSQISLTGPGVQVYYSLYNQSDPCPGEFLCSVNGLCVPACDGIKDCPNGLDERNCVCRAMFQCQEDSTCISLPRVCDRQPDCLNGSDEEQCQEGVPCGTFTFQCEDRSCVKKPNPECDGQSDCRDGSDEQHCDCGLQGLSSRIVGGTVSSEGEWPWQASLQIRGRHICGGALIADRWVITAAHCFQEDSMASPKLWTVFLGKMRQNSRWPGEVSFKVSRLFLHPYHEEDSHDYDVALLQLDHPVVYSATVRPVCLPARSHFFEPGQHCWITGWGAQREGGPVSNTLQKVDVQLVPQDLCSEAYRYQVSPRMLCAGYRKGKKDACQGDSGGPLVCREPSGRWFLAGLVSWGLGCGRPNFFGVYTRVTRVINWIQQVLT
# T2: full length human TMPRSS6 with a C-terminal triple myc tag on HEK293.hHJV cells (HEK293.hHJV/3xMyc.hTMPRSS6) (human, UniProt Q8IU80 1-811)
# T2 sequence: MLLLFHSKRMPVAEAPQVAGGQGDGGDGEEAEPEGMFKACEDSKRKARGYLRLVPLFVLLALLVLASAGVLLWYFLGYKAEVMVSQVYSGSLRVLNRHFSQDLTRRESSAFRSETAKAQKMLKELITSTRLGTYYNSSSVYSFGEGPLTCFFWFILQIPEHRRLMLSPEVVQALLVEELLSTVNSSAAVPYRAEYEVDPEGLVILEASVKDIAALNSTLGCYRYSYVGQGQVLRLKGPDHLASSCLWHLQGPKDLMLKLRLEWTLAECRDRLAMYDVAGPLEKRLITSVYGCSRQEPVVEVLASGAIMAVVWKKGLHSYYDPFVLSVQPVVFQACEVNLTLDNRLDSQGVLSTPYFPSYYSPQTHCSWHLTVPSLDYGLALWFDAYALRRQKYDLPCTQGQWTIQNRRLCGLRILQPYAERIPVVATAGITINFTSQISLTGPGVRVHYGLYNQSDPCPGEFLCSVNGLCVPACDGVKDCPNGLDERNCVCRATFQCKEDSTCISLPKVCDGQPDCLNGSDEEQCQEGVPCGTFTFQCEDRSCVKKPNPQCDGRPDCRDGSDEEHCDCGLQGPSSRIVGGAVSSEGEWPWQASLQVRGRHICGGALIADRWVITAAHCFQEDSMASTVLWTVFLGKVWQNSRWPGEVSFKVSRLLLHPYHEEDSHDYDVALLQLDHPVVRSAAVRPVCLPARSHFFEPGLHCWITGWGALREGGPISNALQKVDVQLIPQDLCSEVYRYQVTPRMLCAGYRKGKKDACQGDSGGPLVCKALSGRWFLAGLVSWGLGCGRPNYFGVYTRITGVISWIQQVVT
# T3: full-length mouse TMPRSS6 with a C-terminal triple myc tag on HEK293.hHJV cells (HEK293.hHJV/3xMyc.mTMPRSS6) (mouse, UniProt Q9DBI0 1-811)
# T3 sequence: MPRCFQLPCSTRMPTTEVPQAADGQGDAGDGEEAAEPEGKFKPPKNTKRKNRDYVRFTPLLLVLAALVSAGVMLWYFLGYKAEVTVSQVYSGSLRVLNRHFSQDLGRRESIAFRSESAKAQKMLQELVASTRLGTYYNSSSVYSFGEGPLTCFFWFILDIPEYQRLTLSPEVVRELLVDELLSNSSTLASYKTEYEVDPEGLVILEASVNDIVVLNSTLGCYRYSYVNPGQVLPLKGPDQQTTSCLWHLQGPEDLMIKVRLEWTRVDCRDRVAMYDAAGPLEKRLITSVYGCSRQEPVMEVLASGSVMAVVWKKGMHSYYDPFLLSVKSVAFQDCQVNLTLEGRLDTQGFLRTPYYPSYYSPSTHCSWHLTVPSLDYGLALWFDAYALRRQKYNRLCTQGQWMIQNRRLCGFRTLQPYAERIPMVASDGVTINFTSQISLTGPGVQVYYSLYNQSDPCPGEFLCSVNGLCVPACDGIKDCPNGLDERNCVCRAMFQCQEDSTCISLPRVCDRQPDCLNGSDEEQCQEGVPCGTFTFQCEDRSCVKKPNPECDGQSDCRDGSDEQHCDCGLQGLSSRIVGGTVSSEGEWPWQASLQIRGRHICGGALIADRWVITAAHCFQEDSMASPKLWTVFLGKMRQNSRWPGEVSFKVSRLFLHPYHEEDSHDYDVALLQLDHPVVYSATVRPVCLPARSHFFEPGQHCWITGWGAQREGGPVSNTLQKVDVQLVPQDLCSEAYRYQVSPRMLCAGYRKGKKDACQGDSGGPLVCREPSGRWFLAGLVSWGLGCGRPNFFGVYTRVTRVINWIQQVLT
# Columns and labels:
# [1] = target: T1, full length mouse TMPRSS6 on HEK293 …; experiment: flow cytometry, HEK293 cells expressing target
# Description: To assess the binding of anti-TMPRSS6 antibodies of the present disclosure to the receptor expressed on the cell surface, antibodies (including an IgG subclass control) were serially diluted in assay buffer (PBS without Ca⁺⁺ and Mg⁺⁺ containing 2% FBS) from 375 nM to 22.9 pM (plus a sample containing assay buffer alone without test molecule) and incubated with 0.5×10⁶ cells/well at 4° C. for 30 minutes in assay buffer. […] Cells were fixed using BD CytoFix™ (Becton Dickinson, #554655) and analyzed on either the IQue® or IQue®Plus Flow Cytometers (Intellicyt®). Unstained and secondary antibody alone controls were also tested for all cell lines. The results were analyzed using ForeCyt® (IntelliCyt®) software to determine the geometric means of fluorescence for viable cells and binding ratio was calculated by normalizing the geometric mean value of the test condition by the geometric mean value of the corresponding unstained cells.
# [2] = target: T2, full length human TMPRSS6 with a …; experiment: cell-based or functional assay
# [3] = target: T3, full-length mouse TMPRSS6 with a …; experiment: cell-based or functional assay
Binder,Max. Fold Binding [1],"Geometric Mean Fluorescence Intensity of cell surface hHJV, 50 nM mAb [2]","Median Fluorescence Intensity of cell surface hHJV, 50 nM mAb [2]","Geometric Mean Fluorescence Intensity of cell surface hHJV, 50 nM mAb [3]","Median Fluorescence Intensity of cell surface hHJV, 50 nM mAb [3]",EC50 [1] [nM]
"REGN7969 (antibody, human IgG4 S228P, kappa, V domains shown, fully human; human IgG4 Fc with hinge S108P; also called mAb37746) VH: QVQLVESGGGVVQPGRSLRLSCAASGFTFNNYGMHWVRQAPGKGLEWVAIISYDGSNEYYSDSVKGRFTISRDNSKNTLYLQMNSLRAEDTAVYYCARDQDYGGNLFHYWGQGTLVTVSS VL: not shown",1 fold over unstained control,47900,67500,8390,7810,
"REGN7971 (antibody, human IgG4 S228P, kappa, V domains shown, fully human; human IgG4 Fc with hinge S108P; also called mAb37763) VH: QVQLVESGGGVVQPGRSLRLSCAASGFTFSTYGMHWVRQAPGKGLEWVAIISYDGSNDYYLDSVKGRFTISRDNSKNTLYLQMNNLRAEDTAVYYCAKDQGYGGNLFASWGQGTLVTVSS VL: not shown",1 fold over unstained control,61800,84400,8230,7470,
"REGN7974 (antibody, human IgG4 S228P, kappa, V domains shown, fully human; human IgG4 Fc with hinge S108P; also called mAb41422) VH: EVQLVESGGGLVQPGRSLRLSCIASGFNFGDYGMSWVRQAPGKGLEWVGFIRSKAYGGTTEYAASVKGRFTISRDDSKSIAYLQMNSLKTEDAAMYYCSRDYYDILTGYYGDYWGQGTLVTVSS VL: not shown",1 fold over unstained control,40900,56700,6960,6220,
"REGN7999 (antibody, human IgG4 S228P, kappa, V domains shown, fully human; human IgG4 Fc with hinge S108P; also called mAb41450) VH: EVQLVESGGGLVQPGGSLRLSCAASGFTFSSYAMTWVRQAPGKGLEWVSAISGSDTSTYYADSVKGRFTISRDNSKNTLFLQMNSLRAEDTAVYYCAKHQDYDFSYYYSAMDVWGQGTTVTVSS VL: DIQMTQSPSSLSASVGDRVIITCRASQDFNSWLAWYQQKPGKAPKLLIYAASSLQSGVPSRFSGSGSGTDFTLTISSLQPEDFATYYCQQTDSFPFTFGPGTKVDIKR",421 fold over unstained control,30700,40100,23700,33600,4.5

# The remaining lines, values ahead:
Max. Fold Binding [1],"Geometric Mean Fluorescence Intensity of cell surface hHJV, 50 nM mAb [2]","Median Fluorescence Intensity of cell surface hHJV, 50 nM mAb [2]","Geometric Mean Fluorescence Intensity of cell surface hHJV, 50 nM mAb [3]","Median Fluorescence Intensity of cell surface hHJV, 50 nM mAb [3]",EC50 [1] [nM],Binder
125 fold over unstained control,49000,63800,9130,7030,9.1,"REGN7977 (antibody, V domains shown, fully human; human IgG4 Fc with hinge S108P; also called mAb41465) VH: EVQLVESGGGLVKPGGSLRVSCAASGVTFSNVWMSWVRQVPGKGLEWVGRIKSKTDGGTTDYAAPVKGRFTISKDDSKNTLFLQMNSLKTEDTAVYYCTTETGDFWSGYYPRFQHWGQGTLVTVSS VL: DIQMTQSPSSLSASVGDRVTITCRASQYISTYLNWYQQKPGKAPSLLIYAASSLQSGVPSRFSGSGSGTDFTLTISSLQPEDFASYSCQQSYSTPPYTFGQGTKLEIKR"
296 fold over unstained control,55500,77800,19000,19400,0.84,"REGN8023 (antibody, human IgG4 S228P, kappa, V domains shown, fully human; human IgG4 Fc with hinge S108P; also called mAb37699) VH: EVQLVESGGGLVKPGGSLRISCAASGFIFVDYAMHWVRQAPGKGLEWVSGISWNSGSIGYADSVKGRFTISRDNAKKSLYLQMSGLRPEDTALYYCVKSGFYYVRSYFDNWGQGTLVTVSS VL: DIVMTQSPLSLPVTPGEPASISCRSSQSLLDSDDGNTYLDWYLRKPGQSPQLLIYTLSYRASGVPDRFSGSGSGTDFTLKISRVEADDVGVYYCMQRIEFPLTFGGGTKVEIKR"
